In patent US20230080842A1 (WUHAN YZY BIOPHARMA, published 2023):

Experiments:
Experiment in all cases: ELISA, plate coated with His-tagged antigen
Human PD-1 = target: T1, Human PD-1 (human, UniProt Q15116 25-170)
T1 construct: also called PD-1 antigen; not shown: His tag

Human VEGFA = target: T2, Human VEGFA (human, UniProt P15692 207-395)
T2 construct: also called VEGF antigen; not shown: His tag
T2 sequence: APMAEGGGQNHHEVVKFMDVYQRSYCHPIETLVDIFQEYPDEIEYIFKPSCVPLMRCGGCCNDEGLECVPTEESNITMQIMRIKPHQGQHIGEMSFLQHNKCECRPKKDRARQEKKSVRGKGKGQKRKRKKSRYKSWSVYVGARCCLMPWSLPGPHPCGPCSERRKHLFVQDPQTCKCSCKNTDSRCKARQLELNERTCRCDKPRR

Human TGF-β1 = target: T3, Human TGF-β1 (human, UniProt P01137 279-390)
T3 construct: also called TGF-01; TGF-β1 antigen; not shown: His tag
T3 sequence (P01137 279-390 limits assumed): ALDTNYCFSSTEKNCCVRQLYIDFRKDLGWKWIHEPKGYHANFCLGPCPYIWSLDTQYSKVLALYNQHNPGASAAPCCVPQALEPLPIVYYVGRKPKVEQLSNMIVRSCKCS

Human TIGIT = target: T4, Human TIGIT (human, UniProt Q495A1 22-141)
T4 construct: also called TIGIT antigen; not shown: His tag
T4 sequence: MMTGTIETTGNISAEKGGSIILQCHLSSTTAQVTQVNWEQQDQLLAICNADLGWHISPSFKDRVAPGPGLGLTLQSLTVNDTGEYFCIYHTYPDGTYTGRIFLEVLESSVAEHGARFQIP

T1 sequence (Q15116 25-170): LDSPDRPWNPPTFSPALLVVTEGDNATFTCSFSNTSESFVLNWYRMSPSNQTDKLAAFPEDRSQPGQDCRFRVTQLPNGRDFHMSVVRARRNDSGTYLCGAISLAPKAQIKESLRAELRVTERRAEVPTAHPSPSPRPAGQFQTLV

Binder | EC50 (Human PD-1) [nM] | EC50 (Human VEGFA) [nM] | EC50 (Human TGF-β1) [nM] | EC50 (Human TIGIT) [nM]
Y206-A2 (bispecific antibody, human IgG1, kappa, structure 2 IgG(H)-ScFv, A series; IgG G631 (anti-VEGF), scFv 5C4 (anti-PD-1)) light: not shown heavy: EVQLVESGGGLVQPGGSLRLSCAASGFTISDYWIHWVRQAPGKGLEWVAGITPAGGYTYYADSVKGRFTISADTSKNTAYLQMNSLRAEDTAVYYCARFVFFLPYAMDYWGQGTLVTVSSASTKGPSVFPLAPSSKSTSGGTAALGCLVKDYFPEPVTVSWNSGALTSGVHTFPAVLQSSGLYSLSSVVTVPSSSLGTQTYICNVNHKPSNTKVDKKVEPKSCDKTHTCPPCPAPPVAGPSVFLFPPKPKDTLMISRTPEVTCVVVDVSHEAPEVQFNWYVDGVEVHNAKTKPREEQFNSTFRVVSVLTVVHQDWLNGKEYKCKVSNKGLPAPIEKTISKTKGQPREPQVYTLPPSRDELTKNQVSLTCLVKGFYPSDIAVEWESNGQPENNYKTTPPVLDSDGSFFLYSKLTVDKSRWQQGNVFSCSVMHEALHNHYTQKSLSLSPGAGGGGSGGGGSGGGGSGQVQLVESGGGVVQPGRSLRLDCKASGITFSNSGMHWVRQAPGKGLEWVAVIWYDGSKRYYADSVKGRFTISRDNSKNTLFLQMNSLRAEDTAVYYCATNDDYWGQGTLVTVSSGGGGSGGGGSGGGGSEIVLTQSPATLSLSPGERATLSCRASQSVSSYLAWYQQKPGQAPRLLIYDASNRATGIPARFSGSGSGTDFTLTISSLEPEDFAVYYCQQSSNWPRTFGQGTKVEIK | 0.45 | 0.063 |  | 
Y206-B2 (bispecific antibody, human IgG1, kappa, structure 2 IgG(H)-ScFv, B series; IgG G631 (anti-VEGF), scFv 5C4 (anti-PD-1)) light: not shown heavy: EVQLVESGGGLVQPGGSLRLSCAASGFTISDYWIHWVRQAPGKGLEWVAGITPAGGYTYYADSVKGRFTISADTSKNTAYLQMNSLRAEDTAVYYCARFVFFLPYAMDYWGQGTLVTVSSASTKGPSVFPLAPSSKSTSGGTAALGCLVKDYFPEPVTVSWNSGALTSGVHTFPAVLQSSGLYSLSSVVTVPSSSLGTQTYICNVNHKPSNTKVDKKVEPKSCDKTHTCPPCPAPPVAGPSVFLFPPKPKDTLMISRTPEVTCVVVDVSHEAPEVQFNWYVDGVEVHNAKTKPREEQFNSTFRVVSVLTVVHQDWLNGKEYKCKVSNKGLPAPIEKTISKTKGQPREPQVYTLPPSRDELTKNQVSLTCLVKGFYPSDIAVEWESNGQPENNYKTTPPVLDSDGSFFLYSKLTVDKSRWQQGNVFSCSVMHEALHNHYTQKSLSLSPGAGGGGSGGGGSGGGGSGEIVLTQSPATLSLSPGERATLSCRASQSVSSYLAWYQQKPGQAPRLLIYDASNRATGIPARFSGSGSGTDFTLTISSLEPEDFAVYYCQQSSNWPRTFGQGTKVEIKGGGGSGGGGSGGGGSQVQLVESGGGVVQPGRSLRLDCKASGITFSNSGMHWVRQAPGKGLEWVAVIWYDGSKRYYADSVKGRFTISRDNSKNTLFLQMNSLRAEDTAVYYCATNDDYWGQGTLVTVSS | 0.312 | 0.0596 |  | 
3G12mAb (antibody, human IgG1, kappa, V domains shown, anti-TGF-β monoclonal antibody, human IgG1 constant domains, kappa) VH: QVQLVQSGAEVKKPGSSVKVSCKASGYTFSSNVISWVRQAPGQGLEWMGGVIPIVDIANYAQRFKGRVTITADESTSTTYMELSSLRSEDTAVYYCASTLGLVLDAMDYWGQGTLVTVSS VL: ETVLTQSPGTLSLSPGERATLSCRASQSLGSSYLAWYQQKPGQAPRLLIYGASSRAPGIPDRFSGSGSGTDFTLTISRLEPEDFAVYYCQQYADSPITFGQGTRLEIKR |  |  | 0.0026 | 
10A7mAb (antibody, human IgG1, kappa, V domains shown, anti-TIGIT monoclonal antibody, human IgG1 constant domains, kappa) VH: EVQLVESGGGLTQPGKSLKLSCEASGFTFSSFTMHWVRQSPGKGLEWVAFIRSGSGIVFYADAVRGRFTISRDNAKNLLFLQMNDLKSEDTAMYYCARRPLGHNTFDSWGQGTLVTVSS VL: DIVMTQSPSSLAVSPGEKVTMTCKSSQSLYYSGVKENLLAWYQQKPGQSPKLLIYYASIRFTGVPDRFTGSGSGTDYTLTITSVQAEDMGQYFCQQGINNPLTFGDGTKLEIKR |  |  |  | 0.0831
